B1: VH:VL chains; a variant is named by its letters at X, in order (parent)
chain 1: QVQLVQSGAEVKKPGASVKVSCKASGYTFTDYXMHWVRQAPGQGLEWMGXVNPNXXXTTYNQKFEGRVTMTTDTSTSTAYMELRSLRSDDTAVYYCARXNXLDXWGQGTTVTVSS
chain 2: DIQMTQSPSSLSASVGDRVTITCSVSSSVSSIYLHWYQQKPGKAPKLLIYSTSNLASGVPSRFSGSGSGTDFTLTISSLQPEDFATYYCQVYSGYPLTFGGGTKVEIK

The variants in the series derive from B1. As to the kind of experiment: yeast display scFab, FACS + sequencing. The essentials: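 For the non-specific binding call, a heavy-chain CDR mutant scFab library on the yeast surface was FACS-sorted and samples from two replicates were deep sequenced. Cells were labelled with anti-Myc and either biotinylated ovalbumin (260 μg/mL in PBSB, 3 h, room temperature) or soluble membrane proteins (130 μg/mL, 20 min on ice), with gates on the top 25% and bottom 10% of binders. With membrane protein and ovalbumin samples pooled, a sequence in ≥3 of 4 positive samples and no negatives was scored positive, and the converse rule scored negatives.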
Take AAGGDYVF: the non-specific binding call is listed as “no binding”. Regarding DAGRGAVS, the non-specific binding call is given as “no binding”.

YRGKDVGV: the non-specific binding call was “binds”. VTGTGAVY: the non-specific binding call was “no binding”. For the variant DAGGASSS, the non-specific binding call was “no binding”.

Turning to VRAGSSWD, the non-specific binding call is listed as “binds”. For the variant DKGRSVGV, the non-specific binding call was “no binding”. Turning to YAGKGFGA, the non-specific binding call is “binds”. Consider FRTGDDSF, for which the non-specific binding call is reported as “no binding”. As for YRGRTAAY, the non-specific binding call was “binds”.

Turning to YRGRTAAV, the non-specific binding call was “binds”. DAARGSSV: the non-specific binding call was “no binding”. As for FEAGDDGV, the non-specific binding call is “no binding”. As for DETGGDWF, the non-specific binding call is on record as “no binding”. The entry for YRRRGSLF is “binds”; for DTGTGAGV it is “no binding”. SGRGNAGD: the non-specific binding call is “no binding”. For YRAGSAAA, the non-specific binding call is given as “binds”. On to YTGTSAGV, for which the non-specific binding call is recorded as “no binding”. Regarding FRERGALA, the non-specific binding call is recorded as “binds”.

VEGGGAVV: the non-specific binding call is “no binding”.

Consider FRAGGAAV, for which the non-specific binding call is given as “binds”.

On to YRRGSAVD, for which the non-specific binding call is on record as “binds”.

For YGGRGDAD, the non-specific binding call was “no binding”. In the case of YRARSAWA, the non-specific binding call is recorded as “binds”. As for YRGRGYWA, the non-specific binding call is given as “binds”. Then YGETGFWY, with “binds”; and VEGGGYGV, with “no binding”; and DAGGADVY, with “no binding”. As to YKGKGFAA, the non-specific binding call was “binds”. Turning to VRRGGAAA, the non-specific binding call is listed as “binds”.

Consider YRAAGSGA, for which the non-specific binding call is reported as “binds”.

With YRRRGASV, the non-specific binding call is given as “binds”. YRARSAGV: the non-specific binding call is given as “binds”. Take YTGTSDAV: the non-specific binding call was “no binding”.

In the case of YRGRGYVS, the non-specific binding call is reported as “binds”. On to SKKTGSVD, for which the non-specific binding call is “no binding”.

Turning to VRKRGSSS, the non-specific binding call is reported as “binds”. Consider VRGRDDSA, for which the non-specific binding call is on record as “no binding”. Then YRGRGVSS, with “binds”. The entry for VEGGGSVD is “no binding”. The entry for YRRRSAGA is “binds”. Regarding YEERTAAA, the non-specific binding call is listed as “binds”. YKEGDSGV chain 1 R87K: the non-specific binding call is recorded as “no binding”. For FRKGTALD, the non-specific binding call is on record as “binds”. For YRTADVGV, the non-specific binding call is on record as “binds”. VRARGAAD: the non-specific binding call is “no binding”. For the variant FKGKGAVA, the non-specific binding call is recorded as “binds”.

YAAAAFGY: the non-specific binding call is “binds”.

For the variant YKRGDSSS, the non-specific binding call is “no binding”. Then FTTRSALS, with “binds”; and YKRGSSVD, with “binds”; and YEGTGDVV, with “no binding”. Turning to FRGRGSSD, the non-specific binding call was “binds”.

FRRRGSGD: the non-specific binding call is “binds”. For the variant YKGRGASD, the non-specific binding call was “binds”. Turning to FRGRGYAV, the non-specific binding call is on record as “binds”. For FEERNSLD, the non-specific binding call is listed as “binds”. In the case of YRTGDSSA, the non-specific binding call is given as “no binding”. For the variant YTGEDDVY, the non-specific binding call is “no binding”. As to YTRGAAGV, the non-specific binding call is “no binding”. On to YTRGAAGY, for which the non-specific binding call is “no binding”. Regarding YKAGDSVA, the non-specific binding call was “no binding”. In the case of YRGAGSLD, the non-specific binding call is “binds”. Then YRRGGAAS, with “binds”. For the variant SEKKADWA, the non-specific binding call is “no binding”. Regarding SRARGAAA, the non-specific binding call is on record as “binds”. As to VTGEGALV, the non-specific binding call was “no binding”. For the variant VEARGDGA, the non-specific binding call is listed as “no binding”. Consider VAREDDLS, for which the non-specific binding call is given as “no binding”. Then SKGRSDVY, with “no binding”; and FKKGSAAV, with “binds”; and VRAGADGV, with “no binding”. In the case of YRRGSSVS, the non-specific binding call is given as “binds”. As for VKGRGVVD, the non-specific binding call is “binds”. With DREEGFSV, the non-specific binding call is on record as “no binding”. Consider YKGRGDGD, for which the non-specific binding call is given as “no binding”.

Regarding YRRRGSVS, the non-specific binding call is given as “binds”. For the variant YRRGDSAD, the non-specific binding call is “binds”. The entry for FRGRDYGA is “binds”; for YRKGGAAS it is “binds”; for SGKKSSGV it is “binds”.

Regarding VTGGDSSA, the non-specific binding call is “no binding”. On to DTTGSAVV, for which the non-specific binding call was “no binding”. Then SKAKGFGV, with “binds”; and YRKGGAGF, with “binds”. Regarding YRRRGDVV, the non-specific binding call is on record as “binds”.

As to VRAGAFSV, the non-specific binding call is recorded as “no binding”. Turning to VRRGSSLF, the non-specific binding call is “binds”. For the variant FRGRDYAA, the non-specific binding call is “binds”. Turning to DAKENDVF, the non-specific binding call is “no binding”. For the variant FRGRGFVA, the non-specific binding call is reported as “binds”. Then DTGTGDGV, with “no binding”; and YTGTSDVY, with “no binding”; and YRRRGYSD, with “binds”.

Take SKKRGSGA: the non-specific binding call is given as “binds”. For VKTKGVVD, the non-specific binding call was “binds”.

As to YKARGSGS, the non-specific binding call is listed as “binds”. In the case of YRKGGSGV, the non-specific binding call is on record as “binds”. For FETGGYVY, the non-specific binding call is listed as “no binding”. With FEEEGSAA, the non-specific binding call was “no binding”. As to FKARGSGV, the non-specific binding call is given as “binds”.

Take SETTDDVA: the non-specific binding call is on record as “no binding”.

YREKGSSV: the non-specific binding call is “binds”.

Consider VKAGGAGS chain 1 G44D, for which the non-specific binding call is “binds”.

On to VAGGDYLV, for which the non-specific binding call is “no binding”. As to DEGGTALA, the non-specific binding call was “no binding”. YKREGSAV: the non-specific binding call was “no binding”. In the case of FAGGSFAS, the non-specific binding call is given as “binds”. As for YTKEASGY, the non-specific binding call was “binds”. Then DEAGDAVV, with “no binding”; and DAGGAAGD, with “no binding”; and YRAEGSSS, with “binds”. Then VAEKGSSA, with “no binding”. With ATGEGDWS, the non-specific binding call is “no binding”. As to VEEEGSVS, the non-specific binding call is on record as “no binding”.

With YKRAAVWD, the non-specific binding call is “binds”. With SEGGDAWV, the non-specific binding call was “no binding”. As for FGRGGVGD, the non-specific binding call is recorded as “binds”. Turning to YGRTSAAV, the non-specific binding call is “binds”.

These data come from the emibetuzumab library of Makowski et al. (2022).
